Laboratory results published in PMC13208732.

Legend:
[1] = molecular target: human vascular endothelial growth factor A, isoform VEGFA165 (human) (UniProt P15692); assay: ELISA; competition with NRP1, no heparin
[2] = molecular target: human vascular endothelial growth factor A, isoform VEGFA165 (human) (UniProt P15692); assay: ELISA; competition with VEGFR1, no heparin
[3] = molecular target: human vascular endothelial growth factor A, isoform VEGFA165 (Homo sapiens); assay: ELISA; competition with biotinylated NRP1, no heparin; conditions: Fc fusion
[4] = molecular target: human vascular endothelial growth factor A, isoform VEGFA165 (Homo sapiens); assay: ELISA; competition with biotinylated VEGFR1, no heparin; conditions: Fc fusion

human vascular endothelial growth factor A, isoform VEGFA165 (Homo sapiens), sequence (P15692 other isoform, or with tags, fused parts or gaps): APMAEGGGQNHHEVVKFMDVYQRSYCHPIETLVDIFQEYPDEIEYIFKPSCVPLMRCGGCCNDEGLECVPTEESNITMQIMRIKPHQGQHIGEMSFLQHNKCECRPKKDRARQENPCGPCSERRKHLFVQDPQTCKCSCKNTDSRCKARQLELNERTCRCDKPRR
human vascular endothelial growth factor A, isoform VEGFA165 (human), sequence (P15692 other isoform, or with tags, fused parts or gaps): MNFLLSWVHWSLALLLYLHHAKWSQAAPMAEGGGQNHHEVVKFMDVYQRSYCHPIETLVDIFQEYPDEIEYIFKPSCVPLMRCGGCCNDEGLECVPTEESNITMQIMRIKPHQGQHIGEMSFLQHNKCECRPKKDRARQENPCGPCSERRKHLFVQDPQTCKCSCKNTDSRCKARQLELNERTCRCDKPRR
VEGFR1 domains 1 to 6 fused to a C-terminal Fc, biotinylated, sequence (P17948 27-654): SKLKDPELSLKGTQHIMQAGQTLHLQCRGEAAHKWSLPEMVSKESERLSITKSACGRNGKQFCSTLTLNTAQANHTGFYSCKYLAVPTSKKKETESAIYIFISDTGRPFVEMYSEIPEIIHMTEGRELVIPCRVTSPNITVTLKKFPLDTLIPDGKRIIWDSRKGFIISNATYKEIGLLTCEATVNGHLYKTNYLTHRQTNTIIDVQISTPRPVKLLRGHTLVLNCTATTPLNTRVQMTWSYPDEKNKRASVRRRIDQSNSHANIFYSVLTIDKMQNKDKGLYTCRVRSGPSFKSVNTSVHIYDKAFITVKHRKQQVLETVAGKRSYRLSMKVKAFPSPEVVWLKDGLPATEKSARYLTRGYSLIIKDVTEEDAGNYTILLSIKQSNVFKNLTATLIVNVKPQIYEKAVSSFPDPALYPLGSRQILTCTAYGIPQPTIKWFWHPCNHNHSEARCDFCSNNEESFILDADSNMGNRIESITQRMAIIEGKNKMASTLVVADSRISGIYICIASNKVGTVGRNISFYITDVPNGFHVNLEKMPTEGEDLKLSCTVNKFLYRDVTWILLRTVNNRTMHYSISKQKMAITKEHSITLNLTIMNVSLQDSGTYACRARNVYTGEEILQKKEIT

Question: What does the source list for G6-31?
Answer: IC50 [1]: 1.9 nM; IC50 [2]: 58.2 nM

Question: How did the IC50 [3] turn out when “NRP1 receptor domains α1α2β1β2 fused to a C-terminal Fc, biotinylated (from UniProt O14786 22-583)” was run?
Answer: Its IC50 is 52.8 nM.

Question: For “VEGFR1 domains 1 to 6 fused to a C-terminal Fc, biotinylated (from UniProt P17948 27-654)”, which IC50 [4] is on record?
Answer: Its IC50 is 16.3 nM.
